Measured values taken from the supplement of paper PMC11316812.
± gives the standard deviation of the averaged measurements.

Assays:
hTERT-HMEC = assay: percentage of EdU-negative (G0-arrested) nuclei per well, 72 h; higher = more G0 arrest; details: reference: sequence is the full UniProt precursor, the tested protein was the secreted form or ectodomain
MCF7 = assay: as above; details: reference: sequence is the full UniProt precursor, the tested protein was the secreted form or ectodomain
[1] = protein concentration 0.021325 µM
[2] = protein concentration 0.03125 µM
[3] = protein concentration 0.21325 µM
[4] = protein concentration 0.3125 µM
[5] = protein concentration 0.00685714 µM
[6] = protein concentration 0.0685714 µM
[7] = protein concentration 0.00839 µM
[8] = protein concentration 0.0839 µM
[9] = protein concentration 0.0225 µM
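Further: secreted proteins added to cultured cells, EdU pulse at the end, nuclei found by Hoechst imaging, EdU status from nuclear versus surrounding ring intensity ratio, PBS as neutral control.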

MRARRGLLRLPRRSLLAALFFFSLSSSLLYFVYVAPGIVNTYLFMMQAQGILIRDNVRTIGAQVYEQVLRSAYAKRNSSVNDSDYPLDLNHSETFLQTTTFLPEDFTYFANHTCPERLPSMKGPIDINMSEIGMDYIHELFSKDPTIKLGGHWKPSDCMPRWKVAILIPFRNRHEHLPVLFRHLLPMLQRQRLQFAFYVVEQVGTQPFNRAMLFNVGFQEAMKDLDWDCLIFHDVDHIPESDRNYYGCGQMPRHFATKLDKYMYLLPYTEFFGGVSGLTVEQFRKINGFPNAFWGWGGEDDDLWNRVQNAGYSVSRPEGDTGKYKSIPHHHRGEVQFLGRYALLRKSKERQGLDGLNNLNYFANITYDALYKNITVNLTPELAQVNEY
percentage of EdU-negative (hTERT-HMEC; protein concentration 0.016 µM): 5.58 ± 0.37%
percentage of EdU-negative (hTERT-HMEC; protein concentration 0.16 µM): 20.8 ± 1.2%
percentage of EdU-negative (MCF7; protein concentration 0.016 µM): 24.5 ± 0.93%
percentage of EdU-negative (MCF7; protein concentration 0.16 µM): 30.8 ± 1.6%

MTAPGAAGRCPPTTWLGSLLLLVCLLASRSITEEVSEYCSHMIGSGHLQSLQRLIDSQMETSCQITFEFVDQEQLKDPVCYLKKAFLLVQDIMEDTMRFRDNTPNAIAIVQLQELSLRLKSCFTKDYEEHDKACVRTFYETPLQLLEKVKNVFNETKNLLDKDWNIFSKNCNNSFAECSSQDVVTKPDCNCLYPKAIPSSDPASVSPHQPLAPSMAPVAGLTWEDSEGTEGSSLLPGEQPLHTVDPGSAKQRPPRSTCQSFEPPETPVVKDSTIGGSPQPRPSVGAFNPGMEDILDSAMGTNWVPEEASGEASEIPVPQGTELSPSRPGGGSMQTEPARPSNFLSASSPLPASAKGQQPADVTGTALPRVGPVRPTGQDWNHTPQKTDHPSALLRDPPEPGSPRISSLRPQGLSNPSTLSAQPQLSRSHSSGSVLPLGELEGRRSTRDRRSPAEPEGGPASEGAARPLPRFNSVPLTDTGHERQSEGSFSPQLQESVFHLLVPSVILVLLAVGGLLFYRWRRRSHQEPQRADSPLEQPEGSPLTQDDRQVELPV
percentage of EdU-negative (hTERT-HMEC; [1]): 5.8 ± 0.14%
percentage of EdU-negative (hTERT-HMEC; [2]): 4.68 ± 0.61%
percentage of EdU-negative (hTERT-HMEC; [3]): 6.92 ± 1.3%
percentage of EdU-negative (hTERT-HMEC; [4]): 6.12 ± 1.1%
percentage of EdU-negative (MCF7; [1]): 21.9 ± 1.2%
percentage of EdU-negative (MCF7; [2]): 26.7 ± 0.3%
percentage of EdU-negative (MCF7; [3]): 27.6 ± 1.4%
percentage of EdU-negative (MCF7; [4]): 26 ± 0.57%

MSAAWIPALGLGVCLLLLPGPAGSEGAAPIAITCFTRGLDIRKEKADVLCPGGCPLEEFSVYGNIVYASVSSICGAAVHRGVISNSGGPVRVYSLPGRENYSSVDANGIQSQMLSRWSASFTVTKGKSSTQEATGQAVSTAHPPTGKRLKKTPEKKTGNKDCKADIAFLIDGSFNIGQRRFNLQKNFVGKVALMLGIGTEGPHVGLVQASEHPKIEFYLKNFTSAKDVLFAIKEVGFRGGNSNTGKALKHTAQKFFTVDAGVRKGIPKVVVVFIDGWPSDDIEEAGIVAREFGVNVFIVSVAKPIPEELGMVQDVTFVDKAVCRNNGFFSYHMPNWFGTTKYVKPLVQKLCTHEQMMCSKTCYNSVNIAFLIDGSSSVGDSNFRLMLEFVSNIAKTFEISDIGAKIAAVQFTYDQRTEFSFTDYSTKENVLAVIRNIRYMSGGTATGDAISFTVRNVFGPIRESPNKNFLVIVTDGQSYDDVQGPAAAAHDAGITIFSVGVAWAPLDDLKDMASKPKESHAFFTREFTGLEPIVSDVIRGICRDFLESQQ
percentage of EdU-negative (hTERT-HMEC; [5]): 4.89 ± 0.28%
percentage of EdU-negative (hTERT-HMEC; [6]): 7.63 ± 0.47%
percentage of EdU-negative (MCF7; [5]): 23.1 ± 2.5%
percentage of EdU-negative (MCF7; [6]): 25.4 ± 0.26%

MAGLTAAAPRPGVLLLLLSILHPSRPGGVPGAIPGGVPGGVFYPGAGLGALGGGALGPGGKPLKPVPGGLAGAGLGAGLGAFPAVTFPGALVPGGVADAAAAYKAAKAGAGLGGVPGVGGLGVSAGAVVPQPGAGVKPGKVPGVGLPGVYPGGVLPGARFPGVGVLPGVPTGAGVKPKAPGVGGAFAGIPGVGPFGGPQPGVPLGYPIKAPKLPGGYGLPYTTGKLPYGYGPGGVAGAAGKAGYPTGTGVGPQAAAAAAAKAAAKFGAGAAGVLPGVGGAGVPGVPGAIPGIGGIAGVGTPAAAAAAAAAAKAAKYGAAAGLVPGGPGFGPGVVGVPGAGVPGVGVPGAGIPVVPGAGIPGAAVPGVVSPEAAAKAAAKAAKYGARPGVGVGGIPTYGVGAGGFPGFGVGVGGIPGVAGVPGVGGVPGVGGVPGVGISPEAQAAAAAKAAKYGAAGAGVLGGLVPGAPGAVPGVPGTGGVPGVGTPAAAAAKAAAKAAQFGLVPGVGVAPGVGVAPGVGVAPGVGLAPGVGVAPGVGVAPGVGVAPGIGPGGVAAAAKSAAKVAAKAQLRAAAGLGAGIPGLGVGVGVPGLGVGAGVPGLGVGAGVPGFGAGADEGVRRSLSPELREGDPSSSQHLPSTPSSPRVPGALAAAKAAKYGAAVPGVLGGLGALGGVGIPGGVVGAGPAAAAAAAKAAAKAAQFGLVGAAGLGGLGVGGLGVPGVGGLGGIPPAAAAKAAKYGAAGLGGVLGGAGQFPLGGVAARPGFGLSPIFPGGACLGKACGRKRK [F8WAH6]
percentage of EdU-negative (hTERT-HMEC; [7]): 4.54 ± 0.69%
percentage of EdU-negative (hTERT-HMEC; [8]): 6.95 ± 0.57%
percentage of EdU-negative (MCF7; [7]): 26.3 ± 0.31%
percentage of EdU-negative (MCF7; [8]): 25.1 ± 0.57%

MSDLGAVISLLLWGRQLFALYSGNDVTDISDDRFPKPPEIANGYVEHLFRYQCKNYYRLRTEGDGVYTLNDKKQWINKAVGDKLPECEAVCGKPKNPANPVQRILGGHLDAKGSFPWQAKMVSHHNLTTGATLINEQWLLTTAKNLFLNHSENATAKDIAPTLTLYVGKKQLVEIEKVVLHPNYHQVDIGLIKLKQKVLVNERVMPICLPSKNYAEVGRVGYVSGWGQSDNFKLTDHLKYVMLPVADQYDCITHYEGSTCPKWKAPKSPVGVQPILNEHTFCVGMSKYQEDTCYGDAGSAFAVHDLEEDTWYAAGILSFDKSCAVAEYGVYVKVTSIQHWVQKTIAEN
percentage of EdU-negative (hTERT-HMEC; protein concentration 0.029 µM): 4.84 ± 0.049%
percentage of EdU-negative (hTERT-HMEC; protein concentration 0.29 µM): 4.84 ± 0.17%
percentage of EdU-negative (MCF7; protein concentration 0.029 µM): 26.82 ± 0.23%
percentage of EdU-negative (MCF7; protein concentration 0.29 µM): 26.1 ± 1.1%

MSDSKEPRVQQLGLLEEDPTTSGIRLFPRDFQFQQIHGHKSSTGCLGHGALVLQLLSFMLLAGVLVAILVQVSKVPSSLSQEQSEQDAIYQNLTQLKAAVGELSEKSKLQEIYQELTQLKAAVGELPEKSKLQEIYQELTRLKAAVGELPEKSKLQEIYQELTRLKAAVGELPEKSKLQEIYQELTRLKAAVGELPEKSKLQEIYQELTELKAAVGELPEKSKLQEIYQELTQLKAAVGELPDQSKQQQIYQELTDLKTAFERLCRHCPKDWTFFQGNCYFMSNSQRNWHDSVTACQEVRAQLVVIKTAEEQNFLQLQTSRSNRFSWMGLSDLNQEGTWQWVDGSPLSPSFQRYWNSGEPNNSGNEDCAEFSGSGWNDNRCDVDNYWICKKPAACFRDE [Q9H2X3]
percentage of EdU-negative (hTERT-HMEC; [9]): 5.68 ± 0.32%
percentage of EdU-negative (hTERT-HMEC; protein concentration 0.225 µM): 6.17 ± 0.82%
percentage of EdU-negative (MCF7; [9]): 27 ± 3.5%
percentage of EdU-negative (MCF7; protein concentration 0.225 µM): 23.8 ± 2.6%
